The text below walks through data of the supplement of paper PMC12042874.

± gives the uncertainty stated by the source.

The data set is described as follows: amyloid nucleation score (Sup35N fusion, yeast selection) (log enrichment); library NNK2; higher = more nucleation; inactive = no reads after selection. In short, it runs like this:
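Peptides of 20 random codons fused to Sup35N were expressed in psi-negative yeast, induced 24 hours with 100 μM copper sulfate, then grown 7 days at 30°C on medium lacking adenine and uracil. Input and output plasmid inserts were Illumina-sequenced. Nucleation score is the DiMSum log enrichment of output over input reads, centred on the mode score of non-aggregating sequences, excluding sequences with under 100 input reads. Random libraries had three technical output replicates.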
For the substance YNSTR, the amyloid nucleation score is -0.082 ± 0.63.

For the substance SVTRWEHAMAVPKKLLHSGR, the amyloid nucleation score amounted to 1.05 ± 0.23.

The substance AFLSLFNSYWYFVFAKLF yielded an amyloid nucleation score of -0.558 ± 0.74.

Take DIHQFGCTHIGCVIGYCCRV: the amyloid nucleation score turned out to be 8.504 ± 0.031.

Turning to LSLWTIGISPVGYRLTNRHQ, the amyloid nucleation score is -0.315 ± 1.

On to RWYSTRCTVEFINATSIVRA, for which the amyloid nucleation score was -0.531 ± 1.1.

The substance PDAIVSGVEHAKGTSDAALS registered an amyloid nucleation score of -0.15 ± 0.28.

The substance NPVRISL yielded an amyloid nucleation score of 0.214 ± 0.28.

KSIESGRIRK showed an amyloid nucleation score of 0.627 ± 0.35.

Substance VHIYQTPPLKCIWSMDKTPA registered an amyloid nucleation score of -0.442 ± 1.

With LNNRLVFSKVHGCRICNRRS, the amyloid nucleation score result was “inactive”.

Regarding SFWDRGFNIRQ, the amyloid nucleation score was 6.145 ± 0.038.

Substance SKHWTCS came in with an amyloid nucleation score of 0.426 ± 0.57.

In the case of ACRLISLVML, the amyloid nucleation score entry is “inactive”.

With VRSVGGTLASPWRAYGC, the amyloid nucleation score is 0.527 ± 0.57.

IMIILLVSVTKSNFTPQSMC showed an amyloid nucleation score of 2.26 ± 0.23.

As to PKWIPYSRRWPWAYIF, the amyloid nucleation score is -1.2 ± 0.48.

On to SYVEHTMILDMRPTCHTLPH, for which the amyloid nucleation score came out at 5.08 ± 0.11.

Consider RKCSSVLRGHTVQDVHFFSA, for which the amyloid nucleation score was -0.056 ± 0.56.

Consider ISYVCGPFICVLNLFYQI, for which the amyloid nucleation score was found to be 6.04 ± 0.066.

For the substance MVRDIEFTLKGRTMG, the amyloid nucleation score is -0.032 ± 1.1.

Substance IMCLKFLNPTHFGCVGVCML registered an amyloid nucleation score of -1.22 ± 0.41.

Consider GYGRLIWLGACRL, for which the amyloid nucleation score is 1.18 ± 0.48.

On to VGYFLSPMTVQLN, for which the amyloid nucleation score entry was “inactive”.

In the case of QPCLHAMV, the amyloid nucleation score was 0.319 ± 0.56.

The substance YLLYGWYTMLALHLALREHI returned an amyloid nucleation score of -0.098 ± 0.79.

As for MYCLHCTTSCWSRLRLVNNF, the amyloid nucleation score came out at 2.98 ± 0.16.

For GVSVV, the amyloid nucleation score result was “inactive”.

RLQSSRSGVKAL gave an amyloid nucleation score of 0.208 ± 0.8.

With LVYNI, the amyloid nucleation score is -0.081 ± 1.1.

In turn, ICIFSSCERSMGHRRC gave an amyloid nucleation score of 0.141 ± 0.38.

In turn, IRVICRIWCLFLSL registered an amyloid nucleation score of 0.087 ± 0.55.

Turning to GPDSLLGFMSAHNWSAKVYP, the amyloid nucleation score is 0.209 ± 0.44.

For DFDGRRHSDNDLSWNSNF, the amyloid nucleation score was -1.42 ± 1.1.

YPYSSWRGSVHCELGINGMG yielded an amyloid nucleation score of 0.29 ± 0.77.

ALGENAPILDRWLIGSLVFL gave an amyloid nucleation score of 1.77 ± 0.39.

Consider ARSLTKSLARYRGRMQMTGP, for which the amyloid nucleation score came to 0.929 ± 0.3.

Consider LDFVQCILAVIQGSRDAAGA, for which the amyloid nucleation score amounted to 0.438 ± 0.64.

FVGTCSHYRGCSVCFITDLL: the amyloid nucleation score was determined as 6.135 ± 0.057.

Regarding EWSRGLCTVQLA, the amyloid nucleation score was 0.058 ± 0.65.

For the substance LTRCPYGSCLNWERWVGYMM, the amyloid nucleation score is 1.93 ± 0.1.

SERFDRAY: the amyloid nucleation score is -1.2 ± 0.42.

Take SSSALEANINQSMEDIKEAF: the amyloid nucleation score was -0.427 ± 1.1.

Turning to ILIRLLTKVLTMLNDMH, the amyloid nucleation score is 0.136 ± 0.65.

The substance AVLPSIDYGCEPRL gave an amyloid nucleation score of 0.136 ± 0.5.

WRMGTPNIRMLC showed an amyloid nucleation score of -0.318 ± 0.38.

For the substance WKHMSRR, the amyloid nucleation score is 0.639 ± 0.66.

Consider FDWISVRGTGWFCLRWWLYV, for which the amyloid nucleation score entry was “inactive”.

In the case of SVFYIYWRSWLFFRSLGLFI, the amyloid nucleation score result is “inactive”.

Regarding CPVSAASLSNLFDVAHNGVR, the amyloid nucleation score was found to be 5.354 ± 0.035.

On to KLHRLTGGHYDPNCDNGPVD, for which the amyloid nucleation score came to 3.68 ± 0.059.

ILALNWLFSICST had an amyloid nucleation score of 6.903 ± 0.035.

On to YENFLLLL, for which the amyloid nucleation score is -0.676 ± 0.26.

The substance FSLICIKIHEKGWQGEG gave an amyloid nucleation score of 4.17 ± 0.065.

Regarding GCSVCDMTF, the amyloid nucleation score was found to be 0.073 ± 0.53.

VSKSFWGMGWSLRYSGFSRV displayed an amyloid nucleation score of -0.262 ± 0.41.

In turn, CNMIYNDKSLPKW showed an amyloid nucleation score of -0.26 ± 0.32.

Take YLNSYNSC: the amyloid nucleation score was -1.31 ± 1.
